Reference: article PMC9245421, “The VvWRKY37 Regulates Bud Break in Grape Vine Through ABA-Mediated Signaling Pathways”
Where a chain is given by its changes, count along the chain named.

T1: VvABF2-HIS (grape vine, UniProt F6H1D1 1-447)
T1 sequence: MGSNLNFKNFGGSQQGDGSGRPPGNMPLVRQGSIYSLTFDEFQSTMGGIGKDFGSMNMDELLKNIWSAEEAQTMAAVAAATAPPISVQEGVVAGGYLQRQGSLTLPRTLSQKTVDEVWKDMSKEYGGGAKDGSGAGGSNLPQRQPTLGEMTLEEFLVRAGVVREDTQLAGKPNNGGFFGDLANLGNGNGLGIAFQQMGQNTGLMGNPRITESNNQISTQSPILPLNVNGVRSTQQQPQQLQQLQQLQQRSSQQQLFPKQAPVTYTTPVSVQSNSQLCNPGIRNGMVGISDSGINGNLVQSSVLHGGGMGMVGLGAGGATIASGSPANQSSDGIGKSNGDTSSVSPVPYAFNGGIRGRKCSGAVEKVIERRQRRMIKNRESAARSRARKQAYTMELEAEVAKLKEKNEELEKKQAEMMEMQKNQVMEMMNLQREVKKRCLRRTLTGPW

T2: VvABI5-HIS (grape vine, UniProt F6HQA3 1-409)
T2 sequence: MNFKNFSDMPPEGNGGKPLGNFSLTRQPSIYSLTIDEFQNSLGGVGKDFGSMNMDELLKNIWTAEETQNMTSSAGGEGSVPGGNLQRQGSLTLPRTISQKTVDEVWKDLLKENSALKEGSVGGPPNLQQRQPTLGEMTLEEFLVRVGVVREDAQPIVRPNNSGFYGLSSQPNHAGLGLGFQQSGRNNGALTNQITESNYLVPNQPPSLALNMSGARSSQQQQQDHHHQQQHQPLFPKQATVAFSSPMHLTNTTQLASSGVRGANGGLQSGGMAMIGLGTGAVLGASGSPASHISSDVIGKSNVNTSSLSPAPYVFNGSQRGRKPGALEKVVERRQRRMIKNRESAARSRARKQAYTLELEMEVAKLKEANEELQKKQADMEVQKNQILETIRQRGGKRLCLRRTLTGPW

B1: W37-P1 (dsDNA)
DNA 1: CTCTCTCCCACGTGCCGACCTCACACGTGTTAGCCTCAT
DNA 2: ATGAGGCTAACACGTGTGAGGTCGGCACGTGGGAGAGAG
B2: W37-P2 (dsDNA)
DNA 1: TCCAAATGCTTTCACGTAATTTCATTTGTT
DNA 2: AACAAATGAAATTACGTGAAAGCATTTGGA
B3: W37-mP2 (dsDNA)
DNA 1: B2 DNA 1 with C13A, G16A, A18G
DNA 2: B2 DNA 2 with T13C, C15T, G18T

Key:
VvABF2-HIS [1] = target: T1, VvABF2-HIS; test: EMSA; EMSA: 2 ul of 5x buffer (50% glycerol, 50 mM MgCl2, 5 mM EDTA, 10 mM DTT, 500 mM KCl, 250 mM HEPES pH 7.4) in 10 ul, i.e. 1x = 10% glycerol, 10 mM MgCl2, 1 mM EDTA, 2 mM DTT, 100 mM KCl, 50 mM HEPES; 1 ul of 0.05 uM biotin probe; 24 C, 20 min; 6% native gel, 0.5x TBE; details: protein: recombinant; tags: His (pET32a); label: biotin; blunt
VvABI5-HIS [2] = target: T2, VvABI5-HIS; test: as above; details: protein: recombinant; tags: His (pET32a); label: biotin; blunt
VvABF2-HIS [3] = target: T1, VvABF2-HIS; test: competition; 100-fold unlabeled vs W37-P2; EMSA: 2 ul of 5x buffer (50% glycerol, 50 mM MgCl2, 5 mM EDTA, 10 mM DTT, 500 mM KCl, 250 mM HEPES pH 7.4) in 10 ul, i.e. 1x = 10% glycerol, 10 mM MgCl2, 1 mM EDTA, 2 mM DTT, 100 mM KCl, 50 mM HEPES; 1 ul of 0.05 uM biotin probe; 24 C, 20 min; 6% native gel, 0.5x TBE; details: protein: recombinant; tags: His (pET32a); blunt
VvABI5-HIS [4] = target: T2, VvABI5-HIS; test: as above; details: protein: recombinant; tags: His (pET32a); blunt

| Binder | binding result (VvABF2-HIS [1]) | binding result (VvABI5-HIS [2]) | binding result (VvABF2-HIS [3]) | binding result (VvABI5-HIS [4]) |
| --- | --- | --- | --- | --- |
| B1 | no binding | no binding | – | – |
| B2 | binds | binds | – | – |
| B3 | – | – | no binding | no binding |
